2 substances from patent publication US20140045756A1 can be followed below.

The target of assay [1] is TNFR1 immobilized on the SPR sensor chip (channel 3) (UniProt P19438). Description: SPR (FastStep kinetic assay).
The target of assay [2] is TNFR2 immobilized on the SPR sensor chip (channel 1) (UniProt P20333). Description: SPR (FastStep kinetic assay). The note with it: ligand.
For assay [3] the target is unchanged. Kind of assay: SPR (FastStep kinetic assay); right panel is TNFR2; key printed as TNFR1. The following applies: designed binder.

Sequence of Recombinant human PGRN (rhPGRN) (P28799 18-593): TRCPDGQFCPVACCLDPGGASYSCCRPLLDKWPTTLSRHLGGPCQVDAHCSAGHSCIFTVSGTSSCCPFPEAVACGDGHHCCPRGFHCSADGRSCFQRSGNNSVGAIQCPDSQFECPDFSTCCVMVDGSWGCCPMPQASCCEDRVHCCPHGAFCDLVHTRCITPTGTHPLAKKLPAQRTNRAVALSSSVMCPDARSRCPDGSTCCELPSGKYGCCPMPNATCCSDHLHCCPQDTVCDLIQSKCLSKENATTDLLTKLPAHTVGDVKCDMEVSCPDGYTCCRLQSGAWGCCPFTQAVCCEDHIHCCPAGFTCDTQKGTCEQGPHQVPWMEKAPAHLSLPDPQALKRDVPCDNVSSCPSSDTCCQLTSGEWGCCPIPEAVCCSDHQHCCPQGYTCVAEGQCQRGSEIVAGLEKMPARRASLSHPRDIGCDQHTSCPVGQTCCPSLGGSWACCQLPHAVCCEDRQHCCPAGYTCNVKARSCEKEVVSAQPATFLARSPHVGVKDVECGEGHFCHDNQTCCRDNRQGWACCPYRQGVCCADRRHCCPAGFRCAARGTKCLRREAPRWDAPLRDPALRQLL
Sequence of TNFR1 immobilized on the SPR sensor chip (channel 3) (P19438 30-211): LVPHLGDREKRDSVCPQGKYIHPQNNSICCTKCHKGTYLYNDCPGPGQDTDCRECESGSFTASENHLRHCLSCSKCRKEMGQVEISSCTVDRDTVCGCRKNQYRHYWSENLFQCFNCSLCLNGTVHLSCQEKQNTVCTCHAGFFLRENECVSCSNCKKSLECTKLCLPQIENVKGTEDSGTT

Turning to “Recombinant human PGRN (rhPGRN) (from UniProt P28799 18-593)”, the values for the Kd in assay [1] (ligand) and in assay [2] were 1.77 nM and 1.52 nM, respectively.

Take “Atsttrin-α1 (Antagonist of TNF/TNFR Signaling via Targeting to TNF Receptors-α1), recombinant”: the Kd was determined as 142 nM in assay [1] (designed binder) and 90.2 nM in assay [3].

The Kd is the concentration at which binding is half-saturated.
